Results taken from PMC2764547 (Structure (London, England : 1993), 2009).
Numbering of substitutions follows the chain as printed. Names and notes keep the numbering of the source. Values joined by “and” are separate entries in the source; they are usually repeats but may differ in a detail not shown here. Equal entries are not always repeated. Where a SMILES comes first, the peptide text is derived from it. Where no end group is shown, it is not given here. fluorescein = fluorescein-β-alanine label at the N-terminus; βAla = NCCC(=O)O

Experiments:
[1] = molecular target: fluorescein-β-alanine-… OMP peptide; test: fluorescence polarisation
[2] = molecular target: H198P DegS (Escherichia coli, UniProt P0AEE3, H198P); test: biochemical; parameters: species or system E. coli
[3] = molecular target: T1, wild-type DegS (Escherichia coli, UniProt P0AEE3); test: biochemical; parameters: species or system E. coli
[4] = molecular target: T1, wild-type DegS; type: biochemical, E. coli; settings: OMP peptide present, 23 ± 1 °C; average of two or more determinations
[5] = molecular target: H198P/K243D DegS (Escherichia coli, UniProt P0AEE3, H198P/K243D); type: biochemical, E. coli; settings: saturating OMP peptide, 23 ± 1 °C; average of two or more determinations
[6] = molecular target: T2, H198P/D320A E. coli DegS (residues 27-355) (E. coli) (UniProt P0AEE3)
T2 sequence: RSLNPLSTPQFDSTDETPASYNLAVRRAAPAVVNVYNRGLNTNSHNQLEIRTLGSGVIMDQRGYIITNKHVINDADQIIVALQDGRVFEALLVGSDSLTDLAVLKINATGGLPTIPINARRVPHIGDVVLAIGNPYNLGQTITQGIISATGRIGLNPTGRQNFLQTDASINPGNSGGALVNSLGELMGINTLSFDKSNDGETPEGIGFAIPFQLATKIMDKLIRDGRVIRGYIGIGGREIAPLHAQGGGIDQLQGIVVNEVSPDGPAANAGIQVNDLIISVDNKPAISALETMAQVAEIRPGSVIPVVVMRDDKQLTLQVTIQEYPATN

[7] = molecular target: T3, H198P E. coli DegS (residues 27-355) (E. coli) (UniProt P0AEE3)
T3 sequence: T2 sequence with A294D

[8] = molecular target: T4, H198P/K243D E. coli DegS (residues 27-355) (E. coli) (UniProt P0AEE3)
T4 sequence: T2 sequence with K217D, A294D

[9] = molecular target: the molecule itself; test: crystal structure
[10] = system: RseA; test: Steady-state RseA cleavage; type: biochemical, E. coli; settings: for Km: KM of RseA; for Km / Vmax: OMP peptide: None, 23 ± 1 °C, average of two or more determinations
[11] = system: RseA; test: Cleavage of sub-KM RseA by DegS variants without OMP peptide; type: biochemical, E. coli; settings: no OMP peptide
[12] = molecular target: T5, D320A E. coli DegS (residues 27-355) (E. coli, UniProt P0AEE3 27-355, D320A); test: fluorescence polarisation
T5 sequence (looked up): T2 sequence with P172H

[13] = molecular target: T6, K243D E. coli DegS (residues 27-355) (E. coli, UniProt P0AEE3 27-355, K243D); test: fluorescence polarisation
T6 sequence (looked up): T2 sequence with P172H, K217D, A294D

[14] = molecular target: T7, wild-type E. coli DegS (residues 27-355) (E. coli, UniProt P0AEE3 27-355); test: fluorescence polarisation
T7 sequence (looked up): T2 sequence with P172H, A294D

[15] = molecular target: T8, H198P/D320A E. coli DegS (residues 27-355) (E. coli, UniProt P0AEE3 27-355, H198P | D320A); test: fluorescence polarisation
T8 sequence (looked up): T2 sequence

[16] = molecular target: T9, H198P E. coli DegS (residues 27-355) (E. coli, UniProt P0AEE3 27-355, H198P); test: fluorescence polarisation
T9 sequence (looked up): T2 sequence with A294D

[17] = molecular target: T10, H198P/K243D E. coli DegS (residues 27-355) (E. coli, UniProt P0AEE3 27-355, H198P | K243D); test: fluorescence polarisation
T10 sequence (looked up): T2 sequence with K217D, A294D

T1 sequence (P0AEE3 27-355): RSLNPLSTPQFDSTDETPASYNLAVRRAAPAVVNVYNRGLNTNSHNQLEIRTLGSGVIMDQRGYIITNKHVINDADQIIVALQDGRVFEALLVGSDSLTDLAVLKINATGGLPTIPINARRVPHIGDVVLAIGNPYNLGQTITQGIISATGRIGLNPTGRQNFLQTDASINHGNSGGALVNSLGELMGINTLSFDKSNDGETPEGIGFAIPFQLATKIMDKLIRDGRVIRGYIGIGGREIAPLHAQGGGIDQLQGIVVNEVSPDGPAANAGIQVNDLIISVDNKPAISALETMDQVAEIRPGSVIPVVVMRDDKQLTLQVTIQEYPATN
H198P DegS, sequence (P0AEE3 27-355 H198P limits assumed): as the sequence (P0AEE3 27-355) above, with H172P counted along it
H198P/K243D DegS, sequence (P0AEE3 27-355 H198P/K243D limits assumed): as the sequence (P0AEE3 27-355) above, with H172P, K217D counted along it

Molecule: PDZ domain of E. coli DegS (domain or fragment)
- Kd [1]: 0.6 µM

Molecule: DNRDGNVYQF
- EC50 [2]: 4.4 ± 0.6 µM
- EC50 [3]: 50 ± 5 µM

Molecule: NC(=O)CC[C@H](NC(=O)[C@@H](N)Cc1ccc(O)cc1)C(=O)N[C@@H](Cc1ccccc1)C(=O)O [YQF] (H-Tyr-Gln-Phe-OH)
- EC50 [2]: 29 ± 5 µM
- EC50 [3]: 260 ± 10 µM

Molecule: DNRDGNVYYF
- Vmax [4]: 1.1 ± 0.2 s^-1 enz^-1
- Vmax [5]: 1.8 ± 0.2 s^-1 enz^-1

B1: 35S-labeled variant of the periplasmic domain of E. coli RseA (residues 121-216) (domain or fragment)
chain: YNGQSETSQQPETPVFNTLPMMGKASPVSLGVPSEATANNGQQQQVQEQRRRINAMLQDYELQRRLHSEQLQFEQAQTQQAAVQVPGIQTLGTQSQ
modifications: 35S-labeled
- KM of RseA cleavage, without OMP peptide [6]: 110 µM
- KM of RseA cleavage, with saturating YQF peptide [7]: 69 µM
- KM of RseA cleavage, with saturating YYF peptide [7]: 64 µM
- KM of RseA cleavage, with saturating … peptide [7]: 94 µM and 130 µM
- KM of RseA cleavage, without OMP peptide [7]: 560 µM
- KM of RseA cleavage, without OMP peptide [8]: 70 µM

B2: DFP-modified H198P/D320A E. coli DegS (residues 27-355) (enzyme, UniProt P0AEE3 27-355, looked up)
chain: T2 sequence
modifications: Ser201 modified by diisopropylfluorophosphate (DFP); seen as monoisopropylphosphorylserine (Mis201) in the crystal structures
- stoichiometry N [9]: 3

B3: H198P/K243D: DegS double mutant (protein)
chain: T2 sequence with K217D, A294D
modifications: left off: His6, N-terminal, state not stated
- Km [10]: 70 ± 5 µM
- Vmax [10]: 1.2 ± 0.1 s^-1 enz^-1

B4: H198P: DegS variant with His^198 substituted by proline (protein)
chain: T2 sequence with A294D
modifications: left off: His6, N-terminal, state not stated
- Km [10]: 560 ± 40 µM
- Vmax [10]: 1.4 ± 0.3 s^-1 enz^-1
- activity with high RseA alone relative to best OMP-peptide activation ([10]; high concentrations of RseA, no OMP peptide): about 60%
- RseA cleavage rate relative to wild-type DegS [11]: 150 fold

B5: H198P/D320A: DegS double mutant (protein)
chain: T2 sequence
modifications: left off: His6, N-terminal, state not stated
- Km [10]: 110 ± 10 µM
- Vmax [10]: 1.6 ± 0.2 s^-1 enz^-1

Molecule: {fluorescein-βAla}-KKDNRDGNYYF [fluorescein-β-alanine-KKDNRDGNYYF OMP peptide]
- Kd [12]: 1.1 µM
- Kd [13]: 3.1 µM
- Kd [14]: 4.6 µM
- Kd [15]: 0.45 µM
- Kd [16]: 1.9 µM
- Kd [17]: 0.68 µM
